# Test results as given in patent US20220017627A1 (Bristol-Myers Squibb, published 2022).
# Numbering of substitutions follows the chain as printed. Names and notes keep the numbering of the source.
# T1: hIL-7R (Example 11) (human, UniProt P16871 21-239)
# T1 construct: Called full length hIL-7R for the mRNA display and hIL-7R for the Biacore runs; also called full length hIL-7R; human IL-7R
# T1 chain: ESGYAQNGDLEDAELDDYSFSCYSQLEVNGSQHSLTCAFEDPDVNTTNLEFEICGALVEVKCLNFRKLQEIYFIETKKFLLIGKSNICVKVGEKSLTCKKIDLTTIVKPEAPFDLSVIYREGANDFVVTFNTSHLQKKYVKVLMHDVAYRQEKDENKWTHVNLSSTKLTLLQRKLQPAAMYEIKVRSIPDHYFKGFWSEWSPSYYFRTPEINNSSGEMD
# B1: 18B1 LC D50A (antibody, human IgG1, kappa, V domains shown)
# VH: EVQLVESGGGLVQPGRSLRLSCAASGFTFDDHAMHWVRQAPGKGLEWVSGISWNSRGIGYADSVKGRFTIFRDNAKNSLYLQMNSLRAEDTALYYCAKDEYSRGYYVLDVWGQGTTVTVSS
# VL: AIQLTQSPSSLSASVGDRVTITCRASQGISSALAWYQQKPGKAPKLLIYAASSLESGVPSRFSGSGSGTDFTLTISSLQPEDFATYYCQQFNSYPLWITFGQGTRLEIKR
# B2: 18B1 LC L54A (antibody, human IgG1, kappa, V domains shown)
# VH: B1 VH
# VL: B1 VL with A50D, L54A
# B3: 18B1 LC S56A (antibody, human IgG1, kappa, V domains shown)
# VH: B1 VH
# VL: B1 VL with A50D, S56A
# B4: 18B1 LC S52A (antibody, human IgG1, kappa, V domains shown)
# VH: B1 VH
# VL: B1 VL with A50D, S52A
# B5: 18B1 LC E55A (antibody, human IgG1, kappa, V domains shown)
# VH: B1 VH
# VL: B1 VL with A50D, E55A
# B6: 18B1 LC S53A (antibody, human IgG1, kappa, V domains shown)
# VH: B1 VH
# VL: B1 VL with A50D, S53A
# B7: 18B1 LC R24A (antibody, human IgG1, kappa, V domains shown)
# VH: B1 VH
# VL: B1 VL with R24A, A50D
# B8: 18B1 LC S93A (antibody, human IgG1, kappa, V domains shown)
# VH: B1 VH
# VL: B1 VL with A50D, S93A
# B9: 18B1 LC Q27A (antibody, human IgG1, kappa, V domains shown)
# VH: B1 VH
# VL: B1 VL with Q27A, A50D
# B10: 18B1 LC L33A (antibody, human IgG1, kappa, V domains shown)
# VH: B1 VH
# VL: B1 VL with L33A, A50D
# B11: 18B1 LC Q90A (antibody, human IgG1, kappa, V domains shown)
# VH: B1 VH
# VL: B1 VL with A50D, Q90A
# B12: 18B1 LC S26A (antibody, human IgG1, kappa, V domains shown)
# VH: B1 VH
# VL: B1 VL with S26A, A50D
# B13: 18B1 LC T97A (antibody, V domains shown)
# VH: B1 VH
# VL: B1 VL with A50D, T99A
# notes: copies: 2 + 2
# B14: 18B1 LC S31A (antibody, human IgG1, kappa, V domains shown)
# VH: B1 VH
# VL: B1 VL with S31A, A50D
# B15: 18B1 LC S30A (antibody, human IgG1, kappa, V domains shown)
# VH: B1 VH
# VL: B1 VL with S30A, A50D
# B16: 18B1 LC F91A (antibody, human IgG1, kappa, V domains shown)
# VH: B1 VH
# VL: B1 VL with A50D, F91A
# B17: 18B1 LC P95A (antibody, human IgG1, kappa, V domains shown)
# VH: B1 VH
# VL: B1 VL with A50D, P95A
# B18: 18B1 LC G28A (antibody, human IgG1, kappa, V domains shown)
# VH: B1 VH
# VL: B1 VL with G28A, A50D
# B19: 18B1 LC I29A (antibody, human IgG1, kappa, V domains shown)
# VH: B1 VH
# VL: B1 VL with I29A, A50D
# B20: 18B1 LC N92A (antibody, human IgG1, kappa, V domains shown)
# VH: B1 VH
# VL: B1 VL with A50D, N92A
# Molecular target: T1, hIL-7R (Example 11)
# Experiment: NGS enrichment ratio of the mutation in the scFv library selected at 0.2 nM hIL-7R [cont'd]
# Description: (§1) All six CDRs of the antibody were mutated, with each position in the CDR mutated to all possible amino acids at that position. […] FIGS. 17A and 17B provide a schematic of the overall process.
row,Binder,0.2 nM NGS
1,B1,0.3
2,B2,0.99
3,B3,0.96
4,B4,1.09
5,B5,0.23
6,B6,1.07

# Molecular target: T1, hIL-7R (Example 11)
# Experiment: SPR (Biacore), ratio KD of parent 18B1 to KD of variant; row repeated at the end of the table [cont'd]
# Description: (§2) Affinity (KD) of each variant binding to hIL-7R was obtained using this approach, and compared against the enrichment ratio (ER) obtained through NGS heat map analysis for the same variant.
row,Binder,KD Relative to 18B1
1,B7,1.15

# Molecular target: T1, hIL-7R (Example 11)
# Experiment: SPR (Biacore), ratio KD of parent 18B1 to KD of variant [cont'd]
# Description: as §2
row,Binder,KD Relative to 18B1
1,B1,0.77
2,B2,0.93
3,B3,0.98
4,B4,0.93
5,B5,0.57
6,B6,0.79

# Molecular target: T1, hIL-7R (Example 11)
# Experiment: SPR (Biacore), ratio KD of parent 18B1 to KD of variant
# Description: as §2
row,Binder,KD Relative to 18B1
1,B8,1.86
2,B9,1.06
3,B10,1.08
4,B11,1.46
5,B12,1.28
6,B13,1.16
7,B14,0.74
8,B15,0.88
9,B16,0.19
10,B17,0.08
11,B18,0.85
12,B19,1.46
13,B20,0.63
14,B7,1.15

# Molecular target: T1, hIL-7R (Example 11)
# Experiment: NGS enrichment ratio of the mutation in the scFv library selected at 0.2 nM hIL-7R
# Description: as §1
row,Binder,0.2 nM NGS
1,B8,1.84
2,B9,1.27
3,B10,1.05
4,B11,1.63
5,B12,1.32
6,B13,0.92
7,B14,0.6
8,B15,0.7
9,B16,0.05
10,B17,0.03
11,B18,1.05
12,B19,1.44
13,B20,0.34
14,B7,0.91
